B1: BAK278D6 scFv (scFv, V domains shown)
VH: EVQLVQSGAEVKKPGASVKVSCKASGYTFRNYGLSWVRQAPGQGLEWMGWISANNGDTNYGQEFQGRITMTTETSTNTAHMELRSLRSDDTAVYYCVRDSSSNWARWFFDLWGKGTMVTVSS
VL: SYVLTQPPSVSVAPGQTARIPCGGNNIGSKLVHWYQQKPGQAPVLVVYDDGDRPSGIPERFSGSNSGNTATLTISRIDAGDEADYYCQVWDTGSDPVVFGGGTKLTVL
B2: BAK1105H3 scFv (scFv, V domains shown, part only)
VH: QVQLVQSGAEVKKPGASVKVSCKASGYTFTNYGLSWVRQAPGQGLEWMGWISGLNGETLYGQEFQGRVTMTTDTSTSTAYMELRSLRSDDTAVYYCARDSSSSWARWFFDLWGRGTLVTVSS
VL: SYVLTQPPSVSVAPGKTARITCGGNIIGSKLVHWYQQKPGQAPVLVIYDDGDRPSGIPERFSGSNSGNTATLTISRVEAGDEADYYCQVWDTGSDPVVFGGGTKLTVL
modifications: scFv linker not given
B3: BAK1167F4 scFv (scFv, V domains shown, part only)
VH: QVQLVQSGAEVKKPGASVKVSCKASGYTFIDTGVSWVRQAPGQGLEWMGWISANNGDTNYGQEFQGRVTMTTDTSTSTAYMELRSLRSDDTAVYYCARDSSSSWARWFFDLWGRGTLVTVSS
VL: SYVLTQPPSVSVAPGKTARITCGGNIIGSKLVHWYQQKPGQAPVLVIYDDGDRPSGIPERFSGSNSGNTATLTISRVEAGDEADYYCQVWDTGSDPVVFGGGTKLTVL
modifications: scFv linker not given
B4: BAK1185F8 scFv (scFv, V domains shown, part only)
VH: QVQLVQSGAEVKKPGASVKVSCKASGYTFTDYGLSWVRQAPGQGLEWMGWIRNIDGYTIYGQEFQGRVTMTTDTSTSTAYMELRSLRSDDTAVYYCARDSSSSWARWFFDLWGRGTLVTVSS
VL: SYVLTQPPSVSVAPGKTARITCGGNIIGSKLVHWYQQKPGQAPVLVIYDDGDRPSGIPERFSGSNSGNTATLTISRVEAGDEADYYCQVWDTGSDPVVFGGGTKLTVL
modifications: scFv linker not given
B5: BAK1111D10 scFv (scFv, V domains shown, part only)
VH: QVQLVQSGAEVKKPGASVKVSCKASGYTFTNYGLSWVRQAPGQGLEWMGWIATPDGQTSYGQEFQGRVTMTTDTSTSTAYMELRSLRSDDTAVYYCARDSNSSWARWFFDLWGRGTLVTVSS
VL: SYVLTQPPSVSVAPGKTARITCGGNIIGSKLVHWYQQKPGQAPVLVIYDDGDRPSGIPERFSGSNSGNTATLTISRVEAGDEADYYCQVWDTGSDPVVFGGGTKLTVL
modifications: scFv linker not given
B6: BAK1184C8 scFv (scFv, V domains shown, part only)
VH: QVQLVQSGAEVKKPGASVKVSCKASGYTFTNYGLSWVRQAPGQGLEWMGWISGSNGYTSYGQEFQGRVTMTTDTSTSTAYMELRSLRSDDTAVYYCARDSSSSWARWFFDLWGRGTLVTVSS
VL: SYVLTQPPSVSVAPGKTARITCGGNIIGSKLVHWYQQKPGQAPVLVIYDDGDRPSGIPERFSGSNSGNTATLTISRVEAGDEADYYCQVWDTGSDPVVFGGGTKLTVL
modifications: scFv linker not given
B7: BAK1187B4 scFv (scFv, part only; not given: Linker, part only)
scFv, part: QVQLVQSGAEVKKPGASVKVSCKASGYTFTNYGLSWVRQAPGQGLEWMGWIDDDSGTTIYGQEFQGRVTMTTDTSTSTAYMELRSLRSDDTAVYYCARDSSSSWARWFFDLWGRGTLVTVSSSYVLTQPPSVSVAPGKTARITCGGNIIGSKLVHWYQQKPGQAPVLVIYDDGDRPSGIPERFSGSNSGNTATLTISRVEAGDEADYYCQVWDTGSDPVVFGGGTKLTVL
B8: BAK1166G2 scFv (scFv, part only; not given: Linker, part only)
scFv, part: QVQLVQSGAEVKKPGASVKVSCKASGYTFANTGISWVRQAPGQGLEWMGWISANNGDTNYGQEFQGRVTMTTDTSTSTAYMELRSLRSDDTAVYYCARDSSSSWARWFFDLWGRGTLVTVSSSYVLTQPPSVSVAPGKTARITCGGNIIGSKLVHWYQQKPGQAPVLVIYDDGDRPSGIPERFSGSNSGNTATLTISRVEAGDEADYYCQVWDTGSDPVVFGGGTKLTVL
B9: BAK1167F2 scFv (scFv, part only; not given: Linker, part only)
scFv, part: QVQLVQSGAEVKKPGASVKVSCKASGYTFEQTGVSWVRQAPGQGLEWMGWISANNGDTNYGQEFQGRVTMTTDTSTSTAYMELRSLRSDDTAVYYCARDSSSSWARWFFDLWGRGTLVTVSSSYVLTQPPSVSVAPGKTARITCGGNIIGSKLVHWYQQKPGQAPVLVIYDDGDRPSGIPERFSGSNSGNTATLTISRVEAGDEADYYCQVWDTGSDPVVFGGGTKLTVL
B10: BAK1185E1 scFv (scFv, part only; not given: Linker, part only)
scFv, part: QVQLVQSGAEVKKPGASVKVSCKASGYTFTNYGLSWVRQAPGQGLEWMGWINDATGDTQYGQEFQGRVTMTTDTSTSTAYMELRSLRSDDTAVYYCARDSSSSWARWFFDLWGRGTLVTVSSSYVLTQPPSVSVAPGKTARITCGGNIIGSKLVHWYQQKPGQAPVLVIYDDGDRPSGIPERFSGSNSGNTATLTISRVEAGDEADYYCQVWDTGSDPVVFGGGTKLTVL

One assay deals with human IL-13 variant (Q130R), baculovirus expressed, carboxyl terminus affinity tag (human) (UniProt P35225).
Experiment: not given
Take B1: the IC50 (read off the curve); TF-1 cell proliferation, 25 ng/ml human IL-13 variant (Q130R) came to 80 nM.

Another assay deals with human IL-13 (human) (UniProt P35225). As to the kind of experiment: cell-based or functional assay.
Take B2: the IC50, TF-1 cell proliferation assay is 0.2 nM.
Regarding B3, the IC50, TF-1 cell proliferation assay was 0.2 nM.
B4 registered an IC50, TF-1 cell proliferation assay of 0.2 nM.
In the case of B5, the IC50, TF-1 cell proliferation assay amounted to 0.2 nM.
For B6, the IC50, TF-1 cell proliferation assay was 0.2 nM.
Take B7: the IC50, TF-1 cell proliferation assay was found to be 0.1 nM.
For the molecule B8, the IC50, TF-1 cell proliferation assay is 0.2 nM.
Regarding B9, the IC50, TF-1 cell proliferation assay worked out at 0.2 nM.
Consider B10, for which the IC50, TF-1 cell proliferation assay is 0.2 nM.
